# B1: Ubiquitin carboxyl-terminal hydrolase 15 (Homo sapiens), Q9Y4E8 (parent)
# chain: MAEGGAADLDTQRSDIATLLKTSLRKGDTWYLVDSRWFKQWKKYVGFDSWDKYQMGDQNVYPGPIDNSGLLKDGDAQSLKEHLIDELDYILLPTEGWNKLVSWYTLMEGQEPIARKVVEQGMFVKHCKVEVYLTELKLCENGNMNNVVTRRFSKADTIDTIEKEIRKIFSIPDEKETRLWNKYMSNTFEPLNKPDSTIQDAGLYQGQVLVIEQKNEDGTWPRGPSTPKSPGASNFSTLPKISPSSLSNNYNNMNNRNVKNSNYCLPSYTAYKNYDYSEPGRNNEQPGLCGLSNLGNTCFMNSAIQCLSNTPPLTEYFLNDKYQEELNFDNPLGMRGEIAKSYAELIKQMWSGKFSYVTPRAFKTQVGRFAPQFSGYQQQDCQELLAFLLDGLHEDLNRIRKKPYIQLKDADGRPDKVVAEEAWENHLKRNDSIIVDIFHGLFKSTLVCPECAKISVTFDPFCYLTLPLPMKKERTLEVYLVRMDPLTKPMQYKVVVPKIGNILDLCTALSALSGIPADKMIVTDIYNHRFHRIFAMDENLSSIMERDDIYVFEININRTEDTEHVIIPVCLREKFRHSSYTHHTGSSLFGQPFLMAVPRNNTEDKLYNLLLLRMCRYVKISTETEETEGSLHCCKDQNINGNGPNGIHEEGSPSEMETDEPDDESSQDQELPSENENSQSEDSVGGDNDSENGLCTEDTCKGQLTGHKKRLFTFQFNNLGNTDINYIKDDTRHIRFDDRQLRLDERSFLALDWDPDLKKRYFDENAAEDFEKHESVEYKPPKKPFVKLKDCIELFTTKEKLGAEDPWYCPNCKEHQQATKKLDLWSLPPVLVVHLKRFSYSRYMRDKLDTLVDFPINDLDMSEFLINPNAGPCRYNLIAVSNHYGGMGGGHYTAFAKNKDDGKWYYFDDSSVSTASEDQIVSKAAYVLFYQRQDTFSGTGFFPLDRETKGASAATGIPLESDEDSNDNDNDIENENCMHTN
# Variants of: B1
# Details: with syvn1_human SYVN1, Q86TM6
# Chain of syvn1_human SYVN1, Q86TM6 (Q86TM6 whole entry): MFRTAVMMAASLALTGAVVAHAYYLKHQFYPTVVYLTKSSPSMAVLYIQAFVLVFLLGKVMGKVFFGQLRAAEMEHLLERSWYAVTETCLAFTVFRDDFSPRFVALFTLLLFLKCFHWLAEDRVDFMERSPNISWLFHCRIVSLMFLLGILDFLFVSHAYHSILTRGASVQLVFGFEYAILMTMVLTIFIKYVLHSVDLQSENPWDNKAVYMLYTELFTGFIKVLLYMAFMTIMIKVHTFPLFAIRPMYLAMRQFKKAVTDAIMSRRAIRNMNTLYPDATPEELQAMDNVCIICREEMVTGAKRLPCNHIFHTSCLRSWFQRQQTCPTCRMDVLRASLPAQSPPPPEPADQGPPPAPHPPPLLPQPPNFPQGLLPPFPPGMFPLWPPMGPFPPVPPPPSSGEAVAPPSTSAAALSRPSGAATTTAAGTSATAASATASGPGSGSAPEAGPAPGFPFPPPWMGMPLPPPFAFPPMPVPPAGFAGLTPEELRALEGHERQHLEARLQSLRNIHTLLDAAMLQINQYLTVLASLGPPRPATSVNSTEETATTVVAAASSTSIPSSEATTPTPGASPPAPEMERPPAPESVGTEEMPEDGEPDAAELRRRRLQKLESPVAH
row,effect of a mutation on the interaction,Variant
1,with no effect,K228R
2,with no effect,K21R
3,with no effect,K154R

# Source: IntAct's records for PubMed 31477895
